Measured values published in PMC2063832.

Test system: La protein (Homo sapiens)
Test: immunoprecipitation

**Q.** EBER1 wild type was tested. Which binding signal (reference (wild type)) did it give?
**A.** 1
